From paper PMC3601782

Target: Sox2 (UniProt P48431)
Assay: co-IP Flag-Oct4 variants, endogenous Sox2
Settings: reference: Flag-Oct4 wild type; sites T235

- binding against the reference: weaker
Substance: Oct4 (from UniProt Q01860) Flag-Oct4-T235A
